Measurements as given in the supplement of paper PMC9112550, “Optimization of the antimicrobial peptide Bac7 by deep mutational scanning” (BMC Biology, 2022).

Test system: Escherichia coli TOP10
Test: shrunken log2 fold change of peptide-encoding DNA abundance (4.5 h post-induction vs induction); higher = less antimicrobial activity (less host growth inhibition)
Details: time post-induction: 4.5 h; library: site-saturation at positions 5, 18, 19, 20
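Further: peptides expressed intracellularly from a pBAD plasmid library in pooled LB shake-flask culture, induced with 0.3% L-arabinose, DNA abundance read by NGS, three biological replicates, DESeq2 with apeglm shrinkage.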

Row | Sequence | shrunken log2 fold change
1 | RRIRYRPPRLPRPRPRPFRGPRP | -0.303
2 | RRIRPRPPRLPRPRPRPKQCPRP | 0.147
3 | RRIRVRPPRLPRPRPRPNWLPRP | -0.105
4 | RRIRYRPPRLPRPRPRPVMWPRP | 3.51
5 | RRIRDRPPRLPRPRPRPDIFPRP | 0.171
6 | RRIRLRPPRLPRPRPRPRKDPRP | 0.0699
7 | RRIRGRPPRLPRPRPRPHWSPRP | -0.132
8 | RRIRVRPPRLPRPRPRPWSGPRP | -0.507
9 | RRIRRRPPRLPRPRPRPDQSPRP | 0.0941
10 | RRIRPRPPRLPRPRPRPSLYPRP | -0.326
11 | RRIRSRPPRLPRPRPRPLCCPRP | 0.473
12 | RRIRGRPPRLPRPRPRPWTSPRP | 0.0439
13 | RRIRPRPPRLPRPRPRPNIHPRP | -0.579
14 | RRIRERPPRLPRPRPRPSEDPRP | -0.0724
15 | RRIRQRPPRLPRPRPRPGCFPRP | 0.0403
16 | RRIRLRPPRLPRPRPRPPDDPRP | 0.397
17 | RRIRGRPPRLPRPRPRPCQPPRP | -0.0639
18 | RRIRERPPRLPRPRPRPQGHPRP | -0.0972
19 | RRIRSRPPRLPRPRPRPCSNPRP | -0.0564
20 | RRIRWRPPRLPRPRPRPDTNPRP | -0.144
21 | RRIRYRPPRLPRPRPRPNMPPRP | -0.304
22 | RRIRCRPPRLPRPRPRPKRTPRP | 0.642
23 | RRIRKRPPRLPRPRPRPEMLPRP | 2
24 | RRIRNRPPRLPRPRPRPKLMPRP | -0.109
25 | RRIRRRPPRLPRPRPRPFDHPRP | -0.242

Row | Sequence | shrunken log2 fold change
26 | RRIRFRPPRLPRPRPRPLAWPRP | 0.32
27 | RRIRFRPPRLPRPRPRPWCCPRP | -0.654
28 | RRIRWRPPRLPRPRPRPAKFPRP | 0.0295
29 | RRIRTRPPRLPRPRPRPLTWPRP | -0.174
30 | RRIRYRPPRLPRPRPRPFHNPRP | -0.451
31 | RRIRQRPPRLPRPRPRPKFDPRP | -0.0817
32 | RRIRKRPPRLPRPRPRPKMTPRP | 0.187
33 | RRIRMRPPRLPRPRPRPTQYPRP | 0.248
34 | RRIRARPPRLPRPRPRPTYNPRP | -0.121
35 | RRIRWRPPRLPRPRPRPYDVPRP | -0.0559
36 | RRIRERPPRLPRPRPRPDLHPRP | -0.262
37 | RRIRKRPPRLPRPRPRPHYEPRP | -0.0316
38 | RRIRMRPPRLPRPRPRPTVSPRP | 0.0176
39 | RRIRERPPRLPRPRPRPYPRPRP | -0.00133
40 | RRIRHRPPRLPRPRPRPDCHPRP | 0.0149
41 | RRIRPRPPRLPRPRPRPNTSPRP | -0.237
42 | RRIRARPPRLPRPRPRPEGGPRP | 0.872
43 | RRIRGRPPRLPRPRPRPSMEPRP | 0.467
44 | RRIRQRPPRLPRPRPRPGLIPRP | -0.118
45 | RRIRVRPPRLPRPRPRPMYRPRP | 0.0262
46 | RRIRMRPPRLPRPRPRPIYQPRP | -0.236
47 | RRIRCRPPRLPRPRPRPCHHPRP | -0.332
48 | RRIRKRPPRLPRPRPRPEFFPRP | 0.7
49 | RRIRLRPPRLPRPRPRPHMGPRP | -0.386
50 | RRIRWRPPRLPRPRPRPWTSPRP | -0.0584

Row | Sequence | shrunken log2 fold change
51 | RRIRIRPPRLPRPRPRPNRVPRP | -0.0802
52 | RRIRTRPPRLPRPRPRPFIHPRP | -0.0383
53 | RRIRGRPPRLPRPRPRPPSYPRP | 0.326
54 | RRIRWRPPRLPRPRPRPRCHPRP | 0.33
55 | RRIRFRPPRLPRPRPRPAARPRP | 0.192
56 | RRIRMRPPRLPRPRPRPSSYPRP | 0.236
57 | RRIRIRPPRLPRPRPRPIMIPRP | -0.0324
58 | RRIRARPPRLPRPRPRPCCVPRP | 0.559
59 | RRIRNRPPRLPRPRPRPNSSPRP | -0.219
60 | RRIRMRPPRLPRPRPRPYAAPRP | 0.364
61 | RRIRTRPPRLPRPRPRPDVGPRP | -0.0549
62 | RRIRRRPPRLPRPRPRPKGVPRP | 0.401
63 | RRIRFRPPRLPRPRPRPCLFPRP | -0.264
64 | RRIRNRPPRLPRPRPRPNNLPRP | -0.202
65 | RRIRKRPPRLPRPRPRPRKVPRP | 0.596
66 | RRIRIRPPRLPRPRPRPLRIPRP | -0.346
67 | RRIRIRPPRLPRPRPRPHPKPRP | -0.258
68 | RRIRARPPRLPRPRPRPVGHPRP | 0.189
69 | RRIRMRPPRLPRPRPRPPTLPRP | 0.256
70 | RRIRHRPPRLPRPRPRPAYFPRP | -0.833
71 | RRIRMRPPRLPRPRPRPDLMPRP | -0.0157
72 | RRIRYRPPRLPRPRPRPKTRPRP | -0.142
73 | RRIRCRPPRLPRPRPRPLFEPRP | 0.193
74 | RRIRKRPPRLPRPRPRPYGCPRP | -0.00151
75 | RRIRDRPPRLPRPRPRPVAHPRP | -0.0445

Row | Sequence | shrunken log2 fold change
76 | RRIRPRPPRLPRPRPRPDIMPRP | -0.0454
77 | RRIRERPPRLPRPRPRPAQYPRP | 0.0972
78 | RRIRWRPPRLPRPRPRPMKNPRP | 0.226
79 | RRIRFRPPRLPRPRPRPRDMPRP | -0.128
80 | RRIRIRPPRLPRPRPRPAYQPRP | -0.76
81 | RRIRPRPPRLPRPRPRPIWQPRP | 0.0572
82 | RRIRERPPRLPRPRPRPCGYPRP | -0.239
83 | RRIRFRPPRLPRPRPRPAPTPRP | 0.912
84 | RRIRARPPRLPRPRPRPPISPRP | 0.027
85 | RRIRARPPRLPRPRPRPEPSPRP | 1.22
86 | RRIRRRPPRLPRPRPRPSYTPRP | -0.227
87 | RRIRFRPPRLPRPRPRPGTQPRP | -0.0219
88 | RRIRVRPPRLPRPRPRPKELPRP | -0.00952
89 | RRIRDRPPRLPRPRPRPECEPRP | 1.53
90 | RRIRMRPPRLPRPRPRPYKAPRP | 0.00361
91 | RRIRFRPPRLPRPRPRPCLPPRP | -0.783
92 | RRIRWRPPRLPRPRPRPNAFPRP | 0.0579
93 | RRIRRRPPRLPRPRPRPVAYPRP | 0.263
94 | RRIRPRPPRLPRPRPRPLIGPRP | 0.009
95 | RRIRHRPPRLPRPRPRPRHKPRP | -0.556
96 | RRIRNRPPRLPRPRPRPQTEPRP | -0.219
97 | RRIRLRPPRLPRPRPRPHKRPRP | 0.0273
98 | RRIRIRPPRLPRPRPRPRRLPRP | -0.0824
99 | RRIRLRPPRLPRPRPRPYMFPRP | -0.123
100 | RRIRSRPPRLPRPRPRPLQIPRP | 0.0322

Row | Sequence | shrunken log2 fold change
101 | RRIRRRPPRLPRPRPRPVEHPRP | 0.0989
102 | RRIRIRPPRLPRPRPRPPQQPRP | 0.197
103 | RRIRQRPPRLPRPRPRPNMWPRP | -0.419
104 | RRIRVRPPRLPRPRPRPQYLPRP | -0.12
105 | RRIRCRPPRLPRPRPRPGCDPRP | 0.258
106 | RRIRTRPPRLPRPRPRPRWMPRP | 0.0454
107 | RRIRMRPPRLPRPRPRPYYKPRP | -0.611
108 | RRIRNRPPRLPRPRPRPEHSPRP | 0.0507
109 | RRIRTRPPRLPRPRPRPRAWPRP | 0.132
110 | RRIRLRPPRLPRPRPRPLYEPRP | -0.488
111 | RRIRWRPPRLPRPRPRPDAHPRP | 0.0254
112 | RRIRHRPPRLPRPRPRPVIWPRP | -0.134
113 | RRIRMRPPRLPRPRPRPAVSPRP | 0.494
114 | RRIRGRPPRLPRPRPRPVQCPRP | 0.102
115 | RRIRTRPPRLPRPRPRPPRFPRP | 0.219
116 | RRIRSRPPRLPRPRPRPCTFPRP | -0.401
117 | RRIRPRPPRLPRPRPRPVMGPRP | 0.149
118 | RRIRNRPPRLPRPRPRPFIIPRP | -0.41
119 | RRIRIRPPRLPRPRPRPTQKPRP | 0.0769
120 | RRIRMRPPRLPRPRPRPCTLPRP | -0.192
121 | RRIRPRPPRLPRPRPRPECGPRP | 0.525
122 | RRIRDRPPRLPRPRPRPYISPRP | -0.176
123 | RRIRLRPPRLPRPRPRPHGQPRP | 0.0101
124 | RRIRMRPPRLPRPRPRPDSKPRP | 0.732
125 | RRIRPRPPRLPRPRPRPKNQPRP | -0.108
